Test results taken from US9433687B2, “Anti-Notch3 antibodies and antibody-drug conjugates” (Pfizer Inc., priority 2012, dated 2016).
“And” between values parts separate entries of the source, which are not always exact repeats. Identical values can stand only once.

How the values were obtained:
MDA-MB-468/hNotch3 = molecular target: T1, MDA-MB-468/hNotch3 (Homo sapiens, UniProt Q9UM47); experiment: In vitro cytotoxicity (MTS), MDA-MB-468/hNotch3; assay type: cell-based; details: MDAMB468/hNotch3; data not shown
T1 construct: cell lines engineered to over-express full length human Notch3 protein: MDA-MB-468/hNotch3 and U2OS/hNotch3; expressed in transfected cells; host or cells: MDA-MB-468
Experimental: The effects of anti-Notch3 ADCs were assessed on 1) cell lines endogenously expressing Notch3 protein: HCC2429 (lung cancer), OVCAR3 (ovarian cancer) and MDA-MB-468 (breast cancer), 2) cell lines engineered to over-express full length human Notch3 protein: MDA-MB-468/hNotch3 and U2OS/hNotch3, and 3) a negative control cell line (SW900) using an MTS cellular viability indicator (Promega, Madison, Wis.). These cell lines were cultured with increasing concentrations of anti-Notch3 ADCs comprising rat-human chimeric anti-Notch3 antibodies, ch28 and ch75, and humanized anti-Notch3 antibodies, hu28 and hu75, conjugated to various linker-payload combinations of the present invention. As a specificity control for the anti-Notch3-ADCs, non-targeted control-ADCs (huNeg8.8-ADCs or ch2H6-ADCs) were also tested on the same cell lines. After four days, viability of each culture was assessed. IC50 values were calculated by logistic non-linear regression, model #203 with XL fit v4.2 (IDBS, Guildford, Surry, UK) and presented as ng Ab/mL. The drug antibody ratio (DAR) is also provided.

[1] = molecular target: T2, full-length human Notch3 expressed on the cell surface of U2OS/hNotch3 cells (Homo sapiens, UniProt Q9UM47); experiment: Cell-based ELISA, U2OS/hNotch3 cells; details: Table 29; two value columns; LB = lacked binding
T2 construct: U-2 OS cells stably over-expressing human or mouse full length Notch3 protein on cell surface; expressed in transfected cells; host or cells: U-2 OS (human osteosarcoma)
Experimental: (§1) Humanized hu28 and hu75, and rat-human chimeric, ch28 and ch75, anti-Notch3 antibodies were screened for cell surface Notch3 binding in a cell-based ELISA. U-2 OS cells stably over-expressing human or mouse full length Notch3 protein on cell surface (hereinafter U2OS/hNotch3 and U2OS/mNotch3, respectively) were plated at 50,000 cells/well in 96 well plates (white opaque, BD/VWR) the day before ELISA assay. On the day of the ELISA, culture media was removed from wells and serially diluted (1:3 in blocking buffer) antibody solutions were applied to the plate. Plates were incubated at room temperature for 2 hours before being washed with PBS-Mg/Ca. HRP-conjugated secondary antibody was then applied and incubated with cells for 1 hour as described above for recombinant protein ELISA. Plates were washed with PBS-Mg/Ca before being developed with Pico-Chemiluminescent developing kit (Thermal Scientific), and chemiluminescence measurements were performed per manufacturer's instructions. Data plotting and analyses were performed with Microsoft Excel and Graphpad-Prism software.
Unconjugated anti-Notch3 antibodies, anti-Notch3 ADCs and a negative control antibody (huNeg8.8) were screened for cell surface binding activity to Notch3 expressing cell lines in a cell-based ELISA. […]

U2OS/hNotch3 = U2OS/hNotch3 (Homo sapiens, UniProt Q9UM47); experiment: Flow cytometry (FACS) binding, U2OS/hNotch3; set-up: U-2 OS cells stably over-expressing human full length Notch3 protein on cell surface; expressed in transfected cells; host or cells: U-2 OS (human osteosarcoma); details: 4 μg/mL antibody; positive control cell line
Experimental: Unconjugated anti-Notch3 antibodies, hu28 and hu75, were examined for cell surface binding activity to Notch3 expressing cell lines by flow cytometry. Fluorescence activated cell sorting (FACS) analysis was conducted according to standard procedures. Cells were rinsed in HBSS with calcium chloride and magnesium chloride (herein termed HBSS++), harvested using trypsin without EDTA and neutralized with medium containing FBS. Cells were incubated on ice for 30 minutes with 4 μg/mL anti-Notch3 antibodies, hu28 and hu75, in HBSS++containing 3% HICS (heat-inactivated calf serum). Cells were washed three times with cold HBSS++, 3% HICS buffer. Cells were incubated in allophycocyanin-conjugated AffiniPure F(ab′)2 fragment goat anti-human IgG, Fc fragment secondary antibody (Jackson ImmunoResearch Laboratories, Inc., West Grove, Pa.) at 10 μg/mL for 30 minutes on ice in the dark. Cells were washed once with cold HBSS++/3% HICS buffer. Cells were resuspended in HBSS-++/3% HICS, 25 mM HEPES, 1 mM MgCl2 and 25 μg/ml DNaseI. 7-AAD (7-Amino-Actinomycin D) was added for exclusion of nonviable cells. Live cells were analyzed on a BD FACSCalibur flow cytometer (BD Biosciences, San Jose, Calif.). Mean fluorescence intensity (MFI) from channel FL-4 was calculated with FlowJo flow cytometry analysis software (Ashland, Oreg.).

[2] = molecular target: T3, mouse Notch3 expressed on the cell surface of U2OS/mNotch3 cells (Mus musculus, UniProt Q61982); experiment: Cell-based ELISA, U2OS/mNotch3 cells; details: Table 3; N/B = non-binding
T3 construct: U-2 OS cells stably over-expressing human or mouse full length Notch3 protein on cell surface; expressed in transfected cells; host or cells: U-2 OS (human osteosarcoma)
Experimental: as §1, with “Plates were washed with PBS-Mg/Ca before being developed with Pico-Chemiluminescent developing kit (Thermal Scientific), and chemiluminescence measurements were performed per manufacturer's instructions.” left out

T2 sequence (Q9UM47 40-2321): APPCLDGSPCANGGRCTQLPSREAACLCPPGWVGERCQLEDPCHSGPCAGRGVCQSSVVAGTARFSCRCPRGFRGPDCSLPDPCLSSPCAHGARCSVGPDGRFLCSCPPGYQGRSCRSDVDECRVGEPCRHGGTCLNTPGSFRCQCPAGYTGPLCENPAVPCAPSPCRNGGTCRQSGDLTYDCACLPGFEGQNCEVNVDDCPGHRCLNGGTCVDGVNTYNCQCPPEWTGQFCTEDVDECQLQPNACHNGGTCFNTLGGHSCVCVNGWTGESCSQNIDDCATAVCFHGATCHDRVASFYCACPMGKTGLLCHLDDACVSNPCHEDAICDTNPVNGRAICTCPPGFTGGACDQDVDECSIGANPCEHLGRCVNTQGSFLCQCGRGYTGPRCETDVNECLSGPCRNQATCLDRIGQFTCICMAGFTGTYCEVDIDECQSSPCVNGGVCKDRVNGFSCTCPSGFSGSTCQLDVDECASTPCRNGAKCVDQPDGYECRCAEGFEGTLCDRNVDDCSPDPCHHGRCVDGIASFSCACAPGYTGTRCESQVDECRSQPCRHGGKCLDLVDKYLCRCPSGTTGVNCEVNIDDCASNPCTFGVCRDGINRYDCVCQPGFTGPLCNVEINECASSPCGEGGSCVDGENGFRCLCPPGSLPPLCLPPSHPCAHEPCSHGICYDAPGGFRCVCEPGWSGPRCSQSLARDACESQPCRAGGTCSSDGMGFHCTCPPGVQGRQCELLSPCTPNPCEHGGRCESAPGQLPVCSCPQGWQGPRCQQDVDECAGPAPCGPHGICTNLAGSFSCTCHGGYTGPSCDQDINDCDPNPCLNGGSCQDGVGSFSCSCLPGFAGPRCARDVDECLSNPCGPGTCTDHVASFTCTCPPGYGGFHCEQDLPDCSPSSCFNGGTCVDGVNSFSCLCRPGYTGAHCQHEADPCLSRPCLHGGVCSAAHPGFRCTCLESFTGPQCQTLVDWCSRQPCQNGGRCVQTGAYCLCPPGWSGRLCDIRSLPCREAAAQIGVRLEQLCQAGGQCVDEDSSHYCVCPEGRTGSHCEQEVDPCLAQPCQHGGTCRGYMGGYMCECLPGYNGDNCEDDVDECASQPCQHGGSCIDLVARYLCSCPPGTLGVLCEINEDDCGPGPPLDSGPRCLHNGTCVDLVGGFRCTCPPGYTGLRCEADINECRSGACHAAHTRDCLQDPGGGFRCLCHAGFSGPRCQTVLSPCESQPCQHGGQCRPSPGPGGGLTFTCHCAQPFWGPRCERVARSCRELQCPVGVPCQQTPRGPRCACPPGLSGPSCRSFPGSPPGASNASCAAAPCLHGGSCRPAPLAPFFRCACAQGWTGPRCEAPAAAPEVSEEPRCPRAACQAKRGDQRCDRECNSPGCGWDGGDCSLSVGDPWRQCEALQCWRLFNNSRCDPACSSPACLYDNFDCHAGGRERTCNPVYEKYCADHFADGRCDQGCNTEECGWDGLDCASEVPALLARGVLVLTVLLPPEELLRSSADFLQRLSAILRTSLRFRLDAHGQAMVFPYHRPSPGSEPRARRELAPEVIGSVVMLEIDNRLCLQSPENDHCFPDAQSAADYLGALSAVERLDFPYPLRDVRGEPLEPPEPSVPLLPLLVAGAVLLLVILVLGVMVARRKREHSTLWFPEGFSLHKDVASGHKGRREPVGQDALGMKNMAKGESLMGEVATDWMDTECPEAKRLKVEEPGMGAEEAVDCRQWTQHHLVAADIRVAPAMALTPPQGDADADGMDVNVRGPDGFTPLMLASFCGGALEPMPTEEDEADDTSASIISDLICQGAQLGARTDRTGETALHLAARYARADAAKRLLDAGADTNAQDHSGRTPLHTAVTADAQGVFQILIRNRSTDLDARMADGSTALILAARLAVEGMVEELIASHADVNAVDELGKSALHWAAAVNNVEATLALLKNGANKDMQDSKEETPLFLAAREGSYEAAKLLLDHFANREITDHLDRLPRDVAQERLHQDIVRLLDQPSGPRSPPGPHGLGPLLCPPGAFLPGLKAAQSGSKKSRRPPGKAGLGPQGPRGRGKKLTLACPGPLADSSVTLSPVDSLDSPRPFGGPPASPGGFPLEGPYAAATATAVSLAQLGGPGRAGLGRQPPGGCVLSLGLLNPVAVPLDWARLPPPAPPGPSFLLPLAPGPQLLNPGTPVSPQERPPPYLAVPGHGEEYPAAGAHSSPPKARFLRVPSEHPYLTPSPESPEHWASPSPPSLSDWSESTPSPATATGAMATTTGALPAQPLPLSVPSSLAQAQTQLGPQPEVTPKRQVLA
U2OS/hNotch3, sequence (Q9UM47 40-2321): as above
T1 sequence (Q9UM47 40-2321): as above
T3 sequence (Q61982 40-2318): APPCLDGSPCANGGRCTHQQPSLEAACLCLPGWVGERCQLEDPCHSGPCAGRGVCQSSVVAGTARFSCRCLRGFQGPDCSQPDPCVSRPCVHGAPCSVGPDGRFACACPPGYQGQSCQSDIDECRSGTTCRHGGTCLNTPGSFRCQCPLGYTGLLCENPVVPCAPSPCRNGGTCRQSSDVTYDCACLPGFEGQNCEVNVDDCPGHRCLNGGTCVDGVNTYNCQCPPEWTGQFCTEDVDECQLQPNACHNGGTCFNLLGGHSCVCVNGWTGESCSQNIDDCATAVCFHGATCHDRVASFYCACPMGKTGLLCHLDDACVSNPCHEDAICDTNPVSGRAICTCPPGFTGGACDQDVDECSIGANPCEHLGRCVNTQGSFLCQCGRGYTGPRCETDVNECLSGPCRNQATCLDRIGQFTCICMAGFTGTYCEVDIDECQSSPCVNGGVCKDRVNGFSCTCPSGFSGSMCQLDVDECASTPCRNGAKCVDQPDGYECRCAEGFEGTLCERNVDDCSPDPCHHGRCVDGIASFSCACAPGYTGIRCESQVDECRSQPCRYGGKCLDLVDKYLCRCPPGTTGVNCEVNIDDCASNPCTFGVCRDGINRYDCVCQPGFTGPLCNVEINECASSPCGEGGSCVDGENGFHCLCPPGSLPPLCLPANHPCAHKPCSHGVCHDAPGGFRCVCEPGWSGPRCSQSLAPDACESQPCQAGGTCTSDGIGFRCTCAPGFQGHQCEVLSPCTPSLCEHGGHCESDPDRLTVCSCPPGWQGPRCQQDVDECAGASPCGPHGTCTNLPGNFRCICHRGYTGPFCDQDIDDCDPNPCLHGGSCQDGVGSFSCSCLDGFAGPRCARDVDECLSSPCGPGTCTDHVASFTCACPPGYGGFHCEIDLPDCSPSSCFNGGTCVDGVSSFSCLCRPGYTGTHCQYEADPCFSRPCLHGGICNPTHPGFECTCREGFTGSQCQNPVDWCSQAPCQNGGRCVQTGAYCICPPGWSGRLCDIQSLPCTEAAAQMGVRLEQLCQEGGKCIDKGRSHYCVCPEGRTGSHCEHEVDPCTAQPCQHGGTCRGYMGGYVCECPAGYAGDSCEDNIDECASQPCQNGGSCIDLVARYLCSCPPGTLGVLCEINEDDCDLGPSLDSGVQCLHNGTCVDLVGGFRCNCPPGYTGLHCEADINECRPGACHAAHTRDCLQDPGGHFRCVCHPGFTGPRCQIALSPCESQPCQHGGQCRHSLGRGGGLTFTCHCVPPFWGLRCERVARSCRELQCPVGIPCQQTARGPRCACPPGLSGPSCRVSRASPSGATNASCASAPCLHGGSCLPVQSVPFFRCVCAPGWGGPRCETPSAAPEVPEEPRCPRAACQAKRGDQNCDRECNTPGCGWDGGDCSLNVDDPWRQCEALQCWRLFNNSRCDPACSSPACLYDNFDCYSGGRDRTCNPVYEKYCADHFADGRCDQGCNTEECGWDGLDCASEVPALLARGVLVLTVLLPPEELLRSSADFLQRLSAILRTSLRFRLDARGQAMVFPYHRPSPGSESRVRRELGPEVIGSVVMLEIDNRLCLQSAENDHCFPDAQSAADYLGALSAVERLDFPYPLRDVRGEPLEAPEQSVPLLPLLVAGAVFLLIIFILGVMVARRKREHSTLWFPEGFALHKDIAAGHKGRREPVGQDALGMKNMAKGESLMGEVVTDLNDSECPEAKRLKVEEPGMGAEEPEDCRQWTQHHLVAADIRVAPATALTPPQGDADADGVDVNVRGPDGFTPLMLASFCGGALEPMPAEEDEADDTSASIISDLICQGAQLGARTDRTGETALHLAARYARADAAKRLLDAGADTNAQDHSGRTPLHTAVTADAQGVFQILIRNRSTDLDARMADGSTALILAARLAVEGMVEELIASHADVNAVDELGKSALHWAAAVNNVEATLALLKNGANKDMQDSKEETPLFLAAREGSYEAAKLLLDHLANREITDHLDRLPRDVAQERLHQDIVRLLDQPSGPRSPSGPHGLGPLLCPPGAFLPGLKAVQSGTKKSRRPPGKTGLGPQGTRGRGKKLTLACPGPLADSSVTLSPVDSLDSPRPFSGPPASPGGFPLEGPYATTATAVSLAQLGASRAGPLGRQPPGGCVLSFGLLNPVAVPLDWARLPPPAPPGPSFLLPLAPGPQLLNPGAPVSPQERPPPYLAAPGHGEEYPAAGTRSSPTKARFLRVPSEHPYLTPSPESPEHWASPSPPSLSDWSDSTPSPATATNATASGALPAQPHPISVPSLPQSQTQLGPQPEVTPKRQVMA

| EC50 [1] | MFI (U2OS/hNotch3) | EC50 (nM) cell surface Notch3 binding ELISA, Full-length Mouse Notch3 [2] | Molecule | effect of unconjugated antibody on viability (MDA-MB-468/hNotch3) |
| --- | --- | --- | --- | --- |
| 0.3 nM and 0.26 nM | 256 | – | hu28 VH1.0/VL1.0: humanized r28 variant VH1.0/VL1.0, anti-Notch3 antibody (VH SEQ ID NO: 13, VL SEQ ID NO: 25) (antibody, V domains shown) VH: EVQLVESGGGLVQPGGSLRLSCAASGFTFRDYGMTWVRQAPGKGLEWVAYISSGSNYIYYAEAVKGRFTISRDNAKNSLYLQMNSLRAEDTAVYYCARRGPFVLDAWGQGTLVTVSS VL: DIQMTQSPSSLSASVGDRVTITCKASQSINRYLHWYQQKPGKAPKLLIYNANGLQTGVPSRFSGSGSGTDFTLTISSLQPEDFATYYCLQHNTWPDTFGGGTKVEIK | did not affect the viability |
| – | – | N/B | ch75: rat-human chimeric anti-Notch3 antibody 75, rat variable regions fused with human IgG1 and human kappa (antibody, V domains shown) VH: QVKLLQSGAALVKPGASVKMSCKASGYAFTDYWVTWVKQSHGKSLEWIGEISPNSGGTNFNEKFKGKATLTVDKSTSTAYMELSRLTSEDSAIYYCTRGEIRYNWFAYWGQGTLVTVSS VL: NIVMTQSPKSMSISVGDRVTMNCKASQNVGNNIAWYQQKPGQSPKLLIYYASNRYTGVPDRFTGGGYGTDFTLTINSMQAEDAAFYYCQRLYNSPFTFGSGTKLEIK | – |
